Data published in the nanobody polyreactivity screen of Harvey et al. (2022).

Assay: yeast display, Sf9 membrane polyspecificity reagent, FACS + sequencing; frameworks hold sequencing errors
How it was run: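 Galactose induction of a Saccharomyces cerevisiae BJ5465 synthetic nanobody display library ran 36–48 hours. The cells were then stained for 1 hour at 4 °C with 10% biotinylated, detergent-solubilized Sf9 membrane reagent, pulled down on streptavidin microbeads and FACS-sorted into low and high (top ~1%) gates on expression and reagent-binding fluorescence. Labels for polyreactivity follow the gate of origin.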

Sequence	polyreactivity (PSR sort gate)
QVQLVESGGGLVQAGGSRRLSCAASGSIFYYNTMGWSRQAPGKERELVAAMRFDDGSTYYADSVKGRFTISRDNAKYTVYLQMNSLKPEDTAVYYCSADWIVVSEFGLDYHMDYWGQGNQVTVSS	low polyreactivity
QVQLVESGGGLVQAVGSLRLSCAASGRIIVRNAMGWYRQAPGKERELVAAISRSGGSTYYADSVKGRFTLSRDNAKNTVYLQMNSLIPEYTAVYYCAADYPITYTSKFNYWGHGTQVTVSS	high polyreactivity
QVQLVESGGGLVQAGGSLRLSCAASGSTFAIYAMGWYRKSPGKERELVASISGGSTNYADSVKGRFTISRDNAKNTVYLQMNSLKPEDTSVYYCAARGALHHWYRFDYWGQGTQVTLSS	low polyreactivity
QVQLVESGGGLVQAGGSLRLSCAASGHTFYYKALGWYTQAPGKEREFVATITESGTSTYYADSVKGRCTLSRDNAKNTVYLQMKSLKPEDTAGYYCAAQYWYVGGIALYDYWGQGTQVTVSS	low polyreactivity
QVQLVESGGGVVQAGGSLRLSCAASGSIFTYYAMGWYRQAPGKERELVAAISYGGGSTNYADSVKGRFTISRDNAKYTVYLQMNSLKPEDTAVYYCNRVLGVNYGYWGQGTQVTVSS	high polyreactivity
QVQLVESGGGLGQAGGSLRLSCAASGSTFYKYAMGWYRQAPGKERELVASITWSGTSTYYADSVKGRFTISRDNQKNTVFLQMNSLKAEDTAVYYCAAPKLDDYDYWGQGTQVTVSS	low polyreactivity
QVQLQESGGGLVQAGGSLRLSCAAIGTIFASQHMGWYRQAPGKERELVASIAKGGNTYYADSVKGRFTISRGNAKNTEYLQMNSLKPEDTAVYYCAAEIDLPYYYGSADDDYWGQGTQVTVSS	high polyreactivity
QVQIVESGGGLVQAGGSLRLSCAASGSTFSRYAMGWYRQAPGKERELVAVITKSGGRTYYADSVKGRFRISRDNAKNTVYLQKHSLKAEDTADYYCAAYPNKSQTADGYWGQGTQVTVSS	high polyreactivity
QVQLEDSGGGLVQAGGSLRLSCAASGSTFRYYTMGWYRQAPGKEREFVASIRTSGGSTYADSVKGRFTISRDNAKNTVYLQMNSLKPEDTAVYYCAARGGYRYTRYDYWGQGTQVTVSS	high polyreactivity
QVQLVESGGGLVQAGGSLRLSCAASASIFAYNAMGWYRQAPGKERELVAAISYSGASTYYADSVKGRFTISRDYAKNTVYLQMNSLKPEDTAVYYCAATSRRRGTKGYWQVWPRFDYWGQGTQVTVSS	high polyreactivity
QVQLVESGGGFVQAGGSLRLSCAASGSTCDGYSMGWYRQAPGKERELVAGISTSGGSTYYADSVKGRFTISRDNAKNTVYLQMNSLKPEDTAVYYCAAEWFDQVKDRAADYISYEYWGQGTQVTVSS	low polyreactivity
QVQLVESGGGLVQAVGSLRLSCAASGFTFSVNAMGWYRQAPGKERELVAAITRSGGRTYYADSVKGRFTISRDNAQNTVYLQMNSLKPEDTAVYYCATPRSRTDGYDYWGQGTQVTVSS	high polyreactivity
QVQLVESGGGLVQAGGSLRLSCAASGRTFGSNAMGWYRQAPGKERELVAAISRVGSTYYADSVNGRFTISRDNAMNTVYLQMNSLKPEDTAVYYCPYDYWGQGTQVTVSS	low polyreactivity
QVQLVESGGGLVQAGGSIRLSCAASGFTFKGNVMGWYRQAPGKERELVAAISRSGGRTYYADSVKGRFTISRDNAKNTVYLQMNSLKPEDTAVYYCAAVVQSSEPVEYDYWGQGTQVTVSS	high polyreactivity
QVQLVESGGGLVQAGGSLRLSCAASGYTRFYAMGWYRQAPGTERELVAAISSSGGTTYYADSVKGRFTISRDNAKNTVYLQMNSLKPEDTAVYYCAKYVSYSRTLYDYWGQGTQVTVSS	low polyreactivity
QVQLVESGGGLVQAGGSLRLSCAASGSIFSSYAMGWYRQAPGKERELVAAISTAGSTNYADSVKGRFTISRDNAKNTVYLQMNSLKPEDTAVYYCAADSGDQQSYGLDLNHDFDYWGQGTQVTVSS	low polyreactivity

Sequence	polyreactivity (PSR sort gate)
QVKHVESGGGLVKAGGSLRLSCPAAGRIIDKYAMGWYRQSPGKERELVATITSSGGSTYYADSVKGRFTISRDTAMNNVYLQMNSLKPEDTAVYYCDALDRTGYSRGETRSLYYFWGQGTQVTVSS	low polyreactivity
QVQLVESGGGLVQAGGSLRLSCAASGSIFGHYAMGWYRQAPGKERELVAAISWSGTSTYYADSVKGRFTISRDNAKNTVYLQMNSLKPEDTAVYYCAAEASYNYGKYVVTYDYWGQGTQVTVSS	high polyreactivity
QVQLVESGGGLVQAGGSLRLSCAASGSIFSQYAMGSYRQAPGKERELVAAITSGGRTYYADSVKGRFTISRDNAKNTVYLQMNSLKPEDTAVYYCAASRRGGGLDYWGQGTKVTVSS	high polyreactivity
QVQLVESGGGLVQAAGSLRLSCAASGSIFTVYVMGWYRLAPGKEREFVATINWRGTSTYYADSVKGRFTISRDNEKNTVYLQMNSLKPEDTAVYYCAAVGSYYGGYDYWGQGTQVTVSS	high polyreactivity
QVQLVESGGGLVQAGGSLRLSCAASGITFVHYAMGWSRQAPGKERELVAAITVGDGGTYYADSVKGRFTISRDNAKNTVYLQMNSLKPEDTAVYYCAAGFYSYSWYVKLAYGYWGQGIQVTVSS	low polyreactivity
QVQLVESGGGLVHAGGSLRLSFAASGRTFVNNAMGWYRQAPGKERELVAAITGSCGSTYYADSVKGRFTISRDNAKNTFYLQMNSLKPEYTAVYYCAKRHVGSRYLFDYWGQGTQVTVSS	low polyreactivity
QVQLVESGGGLVQAGGSLRLSCAASGSIFQYYAMGWYRQAPGKERELVAAISSGDTTNYADSVKGRFTISRDNAKNTVYLQMNSLKPEDTAVYYCNAEGGWYDWDDYWGQGTQVTVSS	low polyreactivity
QVQLVESGGGLVQAGGSLRLSCAASGFTFRDYAMGWYRQAPGKERELVAVISDSGGRTYYADSVKGRFTISRDNAKNTVYLQMNSLKPEDTAVYYCAARGYRSGGGYNYWGQGTQVTVSS	high polyreactivity
QVQLVESGVGLVQAGGSLRLSCAASGNIFTTYAMGWYRQAPGKERELVAAISRTGGRTSYADSVKGRFTISRDNAKNTVYLQMNSLKPEDTAVYYCAAVPTVRPSAPRARILSDYWGQGTQVTVSS	high polyreactivity
QVQLVESGGGLVQAGGSLRLSCAASGSTFDTYAMGWYRQAPGKERELVAAISRSGTSTYYADSVKGRFTISRDNAKNTVYLQMNSLKPEDTAVYFCNNPWYSYRYGGVGYGYWGQGTQVTVSS	low polyreactivity
QVQLVESGGGLVQAGGSLRLSCAASGSTFVYYAMGWYRQAPGKERELVATITSGGSTKYADSVKGRFTISRDNAKNTVYLQMNSLKPEDTAVYYCAAAYRVRGRTYDSWGQGTQVTVSS	high polyreactivity
QFQLQESCCGLVQAGGSLRLSCAASGTISYAPQMGWYRQAPGKERELVAGITIGGTTYYADSVKGRFTISRDNAKNTVYLQMNSLSPGDTAVYYCAAHSEQYTPFYYWGQGTQVTVSS	low polyreactivity
QVQLVESGGGLVQAGGSLRLSCAASGNTFASNAMGWYRQAPGKERELVATISTSGTTYYADSVKGRFTISRDNAKNTVYLQMNSLKPEDTAVYYCARTFKSRRGSRGYYWGQGTQVTVSS	high polyreactivity
QVQLVESGGGLVQAGGSLRLSCAASGRIFYSNAMGWYRQAPGKERELVAVIRRTGSTYYADSVKGRFTISRDNAKNTVYLQMNSLKPEDTAVYYCATRIPYGRGGNRYDYWGQGTQVTVSS	low polyreactivity
QFQLVESGGGLVQAGGSLRLSCAASGRIFRYYDMGWYRQAPGKERELVAAISFSGGSTYYADSVKGRFTISRDNAKNTVYLQMNSLKQEDTAVYYCAAGWRALYLSTYDYWGQGTQVTVSS	high polyreactivity
QVQLVESGGGLVQAGGSLRLSCAASGRTFSKYAMGWYRQAPGKERELVAAIRWSGGSTYYADSVKGRFTISRDNAKNTVYLQMNSLKPEDTAVYYSAKRSRGLKFDYWGLGTQVTVSS	high polyreactivity
